The source of these data is patent US20100169988A1 (published 2010).

Sequences and labels used below:
B1: Synaptotagmin-1 (Synaptotagmin I) (SytI) (p65) (other, mouse, UniProt P46096 1-421, looked up)
chain: MVSASRPEALAAPVTTVATLVPHNATEPASPGEGKEDAFSKLKQKFMNELHKIPLPPWALIAIAIVAVLLVVTCCFCVCKKCLFKKKNKKKGKEKGGKNAINMKDVKDLGKTMKDQALKDDDAETGLTDGEEKEEPKEEEKLGKLQYSLDYDFQNNQLLVGIIQAAELPALDMGGTSDPYVKVFLLPDKKKKFETKVHRKTLNPVFNEQFTFKVPYSELGGKTLVMAVYDFDRFSKHDIIGEFKVPMNTVDFGHVTEEWRDLQSAEKEEQEKLGDICFSLRYVPTAGKLTVVILEAKNLKKMDVGGLSDPYVKIHLMQNGKRLKKKKTTIKKNTLNPYYNESFSFEVPFEQIQKVQVVVTVLDYDKIGKNDAIGKVFVGYNSTGAELRHWSDMLANPRRPIAQWHTLQVEEEVDAMLAVKK
notes: also called SYT1_MOUSE
B2: Glutamine synthetase (Glutamate-ammonia ligase) (enzyme, mouse, UniProt P15105 2-373, looked up)
chain: ATSASSHLNKGIKQMYMSLPQGEKVQAMYIWVDGTGEGLRCKTRTLDCEPKCVEELPEWNFDGSSTFQSEGSNSDMYLHPVAMFRDPFRKDPNKLVLCEVFKYNRKPAETNLRHICKRIMDMVSNQHPWFGMEQEYTLMGTDGHPFGWPSNGFPGPQGPYYCGVGADKAYGRDIVEAHYRACLYAGVKITGTNAEVMPAQWEFQIGPCEGIRMGDHLWIARFILHRVCEDFGVIATFDPKPIPGNWNGAGCHTNFSTKAMREENGLKCIEEAIDKLSKRHQYHIRAYDPKGGLDNARRLTGFHETSNINDFSAGVANRGASIRIPRTVGQEKKGYFEDRRPSANCDPYAVTEAIVRTCLLNETGDEPFQYKN
B3: Alpha enolase (2-phospho-D-glycerate hydro-lyase) (Non-neural enolase) (NNE) (enzyme, mouse, UniProt P17182 2-434, looked up)
chain: SILRIHAREIFDSRGNPTVEVDLYTAKGLFRAAVPSGASTGIYEALELRDNDKTRFMGKGVSQAVEHINKTIAPALVSKKVNVVEQEKIDKLMIEMDGTENKSKFGANAILGVSLAVCKAGAVEKGVPLYRHIADLAGNPEVILPVPAFNVINGGSHAGNKLAMQEFMILPVGASSFREAMRIGAEVYHNLKNVIKEKYGKDATNVGDEGGFAPNILENKEALELLKTAIAKAGYTDQVVIGMDVAASEFYRSGKYDLDFKSPDDPSRYITPDQLADLYKSFVQNYPVVSIEDPFDQDDWGAWQKFTASAGIQVVGDDLTVTNPKRIAKAASEKSCNCLLLKVNQIGSVTESLQACKLAQSNGWGVMVSHRSGETEDTFIADLVVGLCTGQIKTGAPCRSERLAKYNQILRIEEELGSKAKFAGRSFRNPLAK
B4: Aspartate aminotransferase; cytoplasmic (Transaminase A) (enzyme, mouse, UniProt P05201 2-413, looked up)
chain: APPSVFAQVPQAPPVLVFKLTADFRDDPDPRKVNLGVGAYRTDESQPWVLPVVRKVEQKIANDNSLNHEYLPILGLAEFRSCASRLVLGDNSLAIRENRVGGVQSLGGTGALRIGADFLGRWYNGTDNKNTPIYVSSPTWENHNAVFSAAGFKDIRPYCYWDAEKRGLDLQGFLNDLENAPEFSIFVLHACAHNPTGTDPTPEQWKQIAAVMQRRFLFPFFDSAYQGFASGDLEKDAWAIRYFVSEGFELFCAQSFSKNFGLYNERVGNLTVVGKESDSVLRVLSQMEKIVRITWSNPPAQGARIVAATLSDPELFKEWKGNVKTMADRILTMRSELRARLEALKTPGTWSHITEQIGMFSFTGLNPKQVEYLVNEKHIYLLPSGRINMCGLTTKNLDYVATSIHEAVTKIQ
B5: Excitatory amino acid transporter 2 (Sodium-dependent glutamate/aspartate transporter 2) (other, mouse, UniProt P43006 1-572, looked up)
chain: MASTEGANNMPKQVEVRMHDSHLSSDEPKHRNLGMRMCDKLGKNLLLSLTVFGVILGAVCGGLLRLASPIHPDVVMLIAFPGDILMRMLKMLILPLIISSLITGLSGLDAKASGRLGTRAMVYYMSTTIIAAVLGVILVLAIHPGNPKLKKQLGPGKKNDEVSSLDAFLDLIRNLFPENLVQACFQQIQTVTKKVLVAPPSEEANTTKAVISMLNETMNEAPEETKIVIKKGLEFKDGMNVLGLIGFFIAFGIAMGKMGEQAKLMVEFFNILNEIVMKLVIMIMWYSPLGIACLICGKIIAIKDLEVVARQLGMYMITVIVGLIIHGGIFLPLIYFVVTRKNPFSFFAGIFQAWITALGTASSAGTLPVTFRCLEDNLGIDKRVTRFVLPVGATINMDGTALYEAVAAIFIAQMNGVILDGGQIVTVSLTATLASIGAASIPSAGLVTMLLILTAVGLPTEDISLLVAVDWLLDRMRTSVNVVGDSFGAGIVYHLSKSELDTIDSQHRMQEDIEMTKTQSIYDDKNHRESNSNQCVYAAHNSVVIDECKVTLAANGKSADCSVEEEPWKREK
notes: also called EAA2_MOUSE; GLT-1
B6: Creatine kinase; B chain (enzyme)
chain: not shown
B7: Glyceraldehyde-3-phosphate dehydrogenase (GAPDH) (enzyme)
chain: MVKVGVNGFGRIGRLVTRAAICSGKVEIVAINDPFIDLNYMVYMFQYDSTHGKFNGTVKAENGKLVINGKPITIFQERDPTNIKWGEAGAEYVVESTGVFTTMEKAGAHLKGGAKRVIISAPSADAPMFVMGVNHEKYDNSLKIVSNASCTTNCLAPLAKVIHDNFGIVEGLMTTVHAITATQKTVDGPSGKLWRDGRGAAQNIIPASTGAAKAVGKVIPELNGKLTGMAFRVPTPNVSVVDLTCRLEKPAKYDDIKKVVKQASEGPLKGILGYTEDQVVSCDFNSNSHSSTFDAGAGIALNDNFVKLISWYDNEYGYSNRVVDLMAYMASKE
B8: Pyruvate kinase; isozyme M2 (enzyme)
chain: not shown
notes: also called pyruvate kinase isozyme M1/2
B9: ATP synthase gamma chain; mitochondrial precursor (enzyme, mouse, UniProt Q91VR2 26-298, looked up)
chain: ATLKDITRRLKSIKNIQKITKSMKMVAAAKYARAERELKPARVYGTGSLALYEKADIKAPEDKKKHLIIGVSSDRGLCGAIHSSVAKQMKNEVAALTAAGKEVMIVGVGEKIKGILYRTHSDQFLVSFKDVGRKPPTFGDASVIALELLNSGYEFDEGSIIFNQFKSVISYKTEEKPIFSLNTIATAETMSIYDDIDADVLQNYQEYNLANLIYYSLKESTTSEQSARMTAMDNASKNASDMIDKLTLTFNRTRQAVITKELIEIISGAAALD
B10: Malate dehydrogenase; cytoplasmic (enzyme, mouse, UniProt P14152 2-334, looked up)
chain: SEPIRVLVTGAAGQIAYSLLYSIGNGSVFGKDQPIILVLLDITPMMGVLDGVLMELQDCALPLLQDVIATDKEEIAFKDLDVAVLVGSMPRREGMERKDLLKANVKIFKSQGTALEKYAKKSVKVIVVGNPANTNCLTASKSAPSIPKENFSCLTRLDHNRAKSQIALKLGVTADDVKNVIIWGNHSSTQYPDVNHAKVKLQGKEVGVYEALKDDSWLKGEFITTVQQRGAAVIKARKLSSAMSAAKAIADHIRDIWFGTPEGEFVSMGVISDGNSYGVPDDLLYSFPVVIKNKTWKFVEGLPINDFSREKMDLTAKELTEEKETAFEFLSSA
B11: Triosephosphate isomerase (TIM) (Triose-phosphate isomerase) (enzyme, mouse, UniProt P17751 2-249, looked up)
chain: APTRKFFVGGNWKMNGRKKCLGELICTLNAANVPAGTEVVCAPPTAYIDFARQKLDPKIAVAAQNCYKVTNGAFTGEISPGMIKDLGATWVVLGHSERRHVFGESDELIGQKVSHALAEGLGVIACIGEKLDEREAGITEKVVFEQTKVIADNVKDWSKVVLAYEPVWAIGTGKTATPQQAQEVHEKLRGWLKSNVNDGVAQSTRIIYGGSVTGATCKELASQPDVDGFLVGGASLKPEFVDIINAKQ
B12: Vacuolar ATP synthase catalytic subunit A; ubiquitous isoform (enzyme)
chain: MDFSKLPKIRDEDKESTFGYVHGVSGPVVTACDMAGAAMYELVRVGHSELVGEIIRLEGDMATIQVYEETSGVSVGDPVLRTGKPLSVELGPGIMGAIFDGIQRPLSDISSQTQSIYIPRGVNVSALSRDIKWEFIPSKNLRVGSHITGGDIYGIVNENSLIKHKIMLPPRNRGSVTYIAPPGNYDASDVVLELEFEGVKEKFSMVQVWPVRQVRPVTEKLPANHPLLTGQRVLDALFPCVQGGTTAIPGAFGCGKTVISQSLSKYSNSDVIIYVGCGERGNEMSEVLRDFPELTMEVDGKVESIMKRTALVANTSNMPVAAREASIYTGITLSEYFRDMGYHVSMMADSTSRWAEALREISGRLAEMPADSGYPAYLGARLASFYERAGRVKCLGNPEREGSVSIVGAVSPPGGDFSDPVTSATLGIVQVFWGLDKKLAQRKHFPSVNWLISYSKYMRALDEYYDKHFTEFVPLRTKAKEILQEEEDLAEIVQLVGKASLAETDKITLEVAKLIKDDFLQQNGYTPYDRFCPFYKTVGMLSNMISFYDMARRAVETTAQSDNKITWSIIREHMGEILYKLSSMKFKDPVKDGEAKIKADYAQLLEDMQNAFRSLED
notes: also called VATA1_MOUSE
B13: Fructose-bisphosphate aldolase C (Brain-type aldolase) (Aldolase 3) (enzyme, mouse, UniProt P05063 2-363, looked up)
chain: PHSYPALSAEQKKELSDIALRIVTPGKGILAADESVGSMAKRLSQIGVENTEENRRLYRQVLFSADDRVKKCIGGVIFFHETLYQKDDNGVPFVRTIQDKGILVGIKVDKGVVPLAGTDGETTTQGLDGLLERCAQYKKDGADFAKWRCVLKISDRTPSALAILENANVLARYASICQQNGIVPIVEPEILPDGDHDLKRCQYVTEKVLAAVYKALSDHHVYLEGTLLKPNMVTPGHACPIKYSPEEIAMATVTALRRTVPPAVPGVTFLSGGQSEEEASLNLNAINRCPLPRPWALTFSYGRALQASALNAWRGQRDNAGAATEEFIKRAEMNGLAAQGRYEGSGDGGAAAQSLYIANHAY
B14: Ubiquitin carboxyl-terminal hydrolase isozyme L1 (UCH-L1) (enzyme, mouse, UniProt Q9R0P9 1-220, looked up)
chain: MQLKPMEINPEMLNKVLAKLGVAGQWRFADVLGLEEETLGSVPSPACALLLLFPLTAQHENFRKKQIEELKGQEVSPKVYFMKQTIGNSCGTIGLIHAVANNQDKLEFEDGSVLKQFLSETEKLSPEDRAKCFEKNEAIQAAHDSVAQEGQCRVDDKVNFHFILFNNVDGHLYELDGRMPFPVNHGASSEDSLLQDAAKVCREFTEREQGEVRFSAVALC
notes: also called UCHL1_MOUSE
B15: Aspartate aminotransferase; mitochondrial precursor (Transaminase A) (enzyme, mouse, UniProt P05202 30-430, looked up)
chain: SSWWTHVEMGPPDPILGVTEAFKRDTNSKKMNLGVGAYRDDNGKPYVLPSVRKAEAQIAAKNLDKEYLPIGGLAEFCKASAELALGENNEVLKSGRFVTVQTISGTGALRVGASFLQRFFKFSRDVFLPKPSWGNHTPIFRDAGMQLQGYRYYDPKTCGFDFSGALEDISKIPEQSVLLLHACAHNPTGVDPRPEQWKEIASVVKKKNLFAFFDMAYQGFASGDGDKDAWAVRHFIEQGINVCLCQSYAKNMGLYGERVGAFTVVCKDAEEAKRVESQLKILIRPLYSNPPLNGARIAATILTSPDLRKQWLQEVKGMADRIISMRTQLVSNLKKEGSSHNWQHITDQIGMFCFTGLKPEQVERLTKEFSVYMTKDGRISVAGVTSGNVGYLAHAIHQVTK
B16: L-lactate dehydrogenase B chain (LDH-B) (LDH heart subunit) (enzyme)
chain: not shown
B17: Phosphate carrier protein; mitochondrial precursor (PTP) (other, mouse, UniProt Q8VEM8 46-357, looked up)
chain: AVEEYSCEFGSMKYYALCGFGGVLSCGLTHTAVVPLDLVKCRMQVDPQKYKGIFNGFSITLKEDGVRGLAKGWAPTLIGYSMQGLCKFGFYEVFKALYSNILGEENTYLWRTSLYLASSASAEFFADIALAPMEAAKVRIQTQPGYANTLREAVPKMYKEEGLNAFYKGVAPLWMRQIPYTMMKFACFERTVEALYKFVVPKPRSECTKAEQLVVTFVAGYIAGVFCAIVSHPADSVVSVLNKEKGSTASQVLQRLGFRGVWKGLFARIIMIGTLTALQWFIYDSVKVYFRLPRPPPPEMPESLKKKLGLTE
B18: Clathrin light chain A (Lca) (other, mouse, UniProt O08585 1-235, looked up)
chain: MAELDPFGAPAGAPGGPALGNGVAGAGEEDPAAAFLAQQESEIAGIENDEAFAILDGGAPGRATRRAAGGPDAVDGVMNGEYYQESNGPTDSYAAISEVDRLQSEPESIRKWREEQTERLEALDANSRKQEAEWKEKAIKELEEWYARQDEQLQKTKANNRVADEAFYKQPFADLIGYVAAEEAFVNDIDESSPGTEWERVARLCDFNPKSSKQAKDVSRMRSVLISLKQAPLVH

This assay deals with APP-TAP-AICD (human, UniProt P05067 18-695). As to the kind of experiment: streptavidin purification of APP-TAP-AICD from brain homogenate; iTRAQ 116/114, transgenic mouse 75 vs control mouse 72; MALDI-TOF/TOF.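 Note: relative protein abundance in the transgenic versus control pull-down, limited to proteins with high quality scores and above-average enrichment, without full normalization across the whole measurement.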
Excerpt: Shown are all proteins that have high quality scores and are enriched above average in the m75 sample. Purified bait protein is given underlined. Other already known interaction partners of AICD or putatively biologically relevant proteins are given in bold. As full normalization over the entire measurement was not possible through the GPS explorer software suite, this conservative estimate had to be taken for determining the enriched vs. the non-enriched proteins. […] Ranking is in order of abundance ratio.
In the case of B1, the iTRAQ ratio amounted to 3.82.

In the case of B2, the iTRAQ ratio was 3.76.

For B3, the iTRAQ ratio was 3.9.

As for B4, the iTRAQ ratio was determined as 4.04.

With B5, the iTRAQ ratio stood at 4.44.

As to B6, the iTRAQ ratio was determined as 5.32.

As for B7, the iTRAQ ratio came to 4.54.

With B8, the iTRAQ ratio is 4.71.

With B9, the iTRAQ ratio came to 3.98.

As to B10, the iTRAQ ratio came out at 5.96.

Regarding B11, the iTRAQ ratio was 4.61.

B12: the iTRAQ ratio came to 3.81.

For B13, the iTRAQ ratio amounted to 3.77.

Regarding B14, the iTRAQ ratio worked out at 4.68.

With B15, the iTRAQ ratio is 3.51.

Regarding B16, the iTRAQ ratio was found to be 3.99.

In the case of B17, the iTRAQ ratio is 4.61.

For B18, the iTRAQ ratio was 3.98.
